Reference: article doi:10.1101/2024.12.01.626218, “TTF2 drives mitotic replisome disassembly and MiDAS by coupling the TRAIP ubiquitin ligase to Polε” (bioRxiv, 2024)
One block for each binder: values may come before it. Where no end group is shown, it is not given here. [ ]: non-standard residue; d: D form. pT = C[C@@H](OP(=O)(O)O)[C@H](N)C(=O)O

What was measured:
[1] = biological target: the molecule itself; assay: mass photometry; Refeyn OneMP; TRAIP diluted to 6.4 ng/µl (~50 nM of TRAIP dimer); 25 mM Hepes-KOH pH 7.9, 150 mM NaCl, 10 mM MgOAc, 1 mM DTT
[2] = biological target: T1, His-SUMO-TTF2 1-100 (tandem zinc fingers) (Mus musculus, UniProt Q5NC05 1-100); assay: EMSA; 10 nM DNA; EMSA buffer (25 mM buffer component; full composition not in the material), 10 nM Cy5-DNA, 10 µl, room temperature, 10 min; Novex TBE 4-12% gel, 150 V, 40 min; conditions: protein: recombinant, tags: N-terminal 14His-SUMO (yeast Smt3)
T1 sequence: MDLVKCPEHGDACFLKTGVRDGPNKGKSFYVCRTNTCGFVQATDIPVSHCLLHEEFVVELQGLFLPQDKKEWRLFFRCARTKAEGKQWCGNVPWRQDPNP

HisSUMO-TTF2 1-100 [3] = biological target: T2, HisSUMO-TTF2 1-100 (mouse, UniProt Q5NC05 1-100); assay: ITC; MicroCal PEAQ-ITC; 20 µM HisSUMO-TTF2 1-100 in the cell, 200 µM TRAIP peptide injected (19 x 2 µl); 50 mM Tris-HCl pH 7.5, 100 mM NaCl, 0.5 mM TCEP; conditions: both partners purified
T2 construct: mouse TTF2 residues 1-100 (tandem Zinc fingers); also called His-SUMO-tagged TTF2; recombinant form of TTF2 1-100; source: E. coli Rosetta (DE3) pLysS, purified (Ni-NTA, Superdex 200); not shown: 14His, N-terminal, kept; Smt3 (budding yeast SUMO), N-terminal, kept
T2 sequence (looked up): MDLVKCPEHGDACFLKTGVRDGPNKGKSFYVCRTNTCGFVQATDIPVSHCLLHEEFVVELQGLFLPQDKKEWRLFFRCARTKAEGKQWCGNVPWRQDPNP

HisSUMO-TTF2 1-100 [4] = biological target: T3, HisSUMO-TTF2 1-100 (mouse, UniProt Q5NC05 1-100); assay: ITC; phosphorylated T325
T3 chain: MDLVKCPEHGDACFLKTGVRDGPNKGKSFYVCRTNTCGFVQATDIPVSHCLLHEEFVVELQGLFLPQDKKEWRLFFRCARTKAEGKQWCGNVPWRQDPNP

B1: recombinant mouse TRAIP (enzyme, UniProt Q8VIG6-1 1-470, looked up)
chain: MPIRALCTICSDFFDHSRDVAAIHCGHTFHLQCLIQWFETAPSRTCPQCRIQVGKKTIINKLFFDLAQEEENVLDAEFLKNELDSVKAQLSQKDREKRDSQAIIDTLRDTLEERNATVESLQNALNKAEMLCSTLKKQMKFLEQRQDETKQAREEAHRLKCKMKTMEQIELLLQSQRSEVEEMIRDMGVGQSAVEQLAVYCVSLKKEYENLKEARKATGELADRLKKDLVSSRSKLKTLNTELDQAKLELRSAQKDLQSADQEITSLRKKLMILQGTLSLPPATNETVSRLVFESPAPVEMMNPRLHQPPFGDEIDLNTTFDVNTPPTQTSGSQHCLPKKLCLERARSPMQNVLKKVHKVSKPESQLSLGGQRCVGELDEELAGAFPLFIRNAVLGQKQPNRTTAESRCSTDVVRIGFDGLGGRTKFIQPRDTTIIRPVPVKSKAKSKQKVRIKTVSSASQPKLDTFLCQ
notes: Mw of the monomer 53.1 kDa; the tag was cut off with Ulp1; also called purified TRAIP; TRAIP ubiquitin ligase; source: E. coli Rosetta (DE3) pLysS, purified (Ni-NTA, HiTrapQ, HiTrap Heparin, Superose 6); not shown: 14His-Smt3 (budding yeast SUMO), N-terminal, cleaved
stoichiometry N [1]: 2

B2: YX011 80-nt ssDNA (ssDNA)
DNA: CAGTGCCAAGCTTGCATGCCTGCAGGTCGACTCTAGAGGATCCCCGGGTACCGAGCTCGAATTCGTAATCATGGTCATAG
binding result ([2]; label: 5'-Cy5): no binding

B3: YX011/YX012 80-bp dsDNA (dsDNA)
DNA 1: CAGTGCCAAGCTTGCATGCCTGCAGGTCGACTCTAGAGGATCCCCGGGTACCGAGCTCGAATTCGTAATCATGGTCATAG
DNA 2: CTATGACCATGATTACGAATTCGAGCTCGGTACCCGGGGATCCTCTAGAGTCGACCTGCAGGCATGCAAGCTTGGCACTG
binding result ([2]; label: 5'-Cy5 on strand 1, blunt): no binding

binding result (HisSUMO-TTF2 1-100 [3]): binds
Kd (HisSUMO-TTF2 1-100 [4]): 2300 nM
B4: peptide corresponding to mouse TRAIP 313-329 with phosphorylated T325 (peptide)
peptide: FGDEIDLNTTFDVN[pT]PPTQ
modifications: not fully specified; printed as FGDEIDLNTTFDVN**T**PPTQ
notes: mouse TRAIP; the CDK consensus (T followed by P) points to the 15th letter; also called phosphorylated peptide; source: synthetic peptide (Peptide & Elephants)
